{"source": "patent US20110151454", "molecular_target": "HA-SKP2 phosphorylated in vitro by AKT (32P-SKP2) (UniProt Q13309)", "sequence (Q13309 whole entry, looked up)": "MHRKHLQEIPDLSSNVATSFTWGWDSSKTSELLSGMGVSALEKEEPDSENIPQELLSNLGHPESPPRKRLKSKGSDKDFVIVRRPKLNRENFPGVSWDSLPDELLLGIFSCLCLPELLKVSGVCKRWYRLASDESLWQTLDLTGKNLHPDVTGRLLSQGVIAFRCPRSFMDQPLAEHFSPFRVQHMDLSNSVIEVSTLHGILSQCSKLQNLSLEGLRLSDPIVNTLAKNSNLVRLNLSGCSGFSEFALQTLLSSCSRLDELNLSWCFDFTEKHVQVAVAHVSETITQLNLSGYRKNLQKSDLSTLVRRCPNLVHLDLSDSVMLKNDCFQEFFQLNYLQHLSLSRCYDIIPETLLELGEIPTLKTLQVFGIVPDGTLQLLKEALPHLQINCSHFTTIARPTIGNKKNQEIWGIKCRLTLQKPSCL", "data": [{"substance": "flag-PTEN", "values": [{"measurement": "removal of 32P from AKT-phosphorylated SKP2", "result": "neither PTEN nor PPM1H exhibited any evidence of phosphatase activity on SKP2"}]}]}
